# Test results: PMC11655355 (Nature, 2024)
# T1: RCD1–SRO–TAF4 (RST) domain from RCD1, RCD1-RST_(499–572) (UniProt Q8RY59 499-572)
# T1 sequence (looked up): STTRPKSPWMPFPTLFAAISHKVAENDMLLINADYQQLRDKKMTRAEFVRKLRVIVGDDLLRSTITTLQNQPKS
# Assays:
# [1] = target: RCD1–SRO–TAF4 (RST) domain from RCD1, RCD1-RST_(499–572) (UniProt Q8RY59); experiment: ITC
# [2] = target: T1, RCD1–SRO–TAF4 (RST) domain from RCD1, …; experiment: ITC
fold difference in Kd between L- and D-enantiomer [1] [fold],binding result [2],Molecule
500,–,"D-ANAC013_(254–274), synthetic D-peptide (from UniProt F4IED2 254-274)"
15,–,"D-ANAC046_(319–338), synthetic D-peptide (from UniProt Q9SQQ6 319-338)"
72,–,"D-DREB2A_(255–272), synthetic D-peptide (from UniProt O82132 255-272)"
–,binds,"SSDMFDVDELLRDLNGDD (peptide, UniProt O82132 255-272, looked up) [L-DREB2A_(255–272), synthetic peptide]"
